Assay results from US20250027955A1, “ETHYLENE RECEPTORS AND BINDING DOMAINS WITH MODIFIED BINDING KINETICS FOR ETHYLENE” (Trustees of Dartmouth College, priority 2022, published 2025).

B1: ETR1^D25N: ETR1 with site-directed mutation Asp25Asn, carboxylic acid changed to carboxamide (protein, UniProt P49333 1-738, looked up, variant D25N)
Ethylene receptor 1: MEVCNCIEPQWPADELLMKYQYISNFFIAIAYFSIPLELIYFVKKSAVFPYRWVLVQFGAFIVLCGATHLINLWTFTTHSRTVALVMTTAKVLTAVVSCATALMLVHIIPDLLSVKTRELFLKNKAAELDREMGLIRTQEETGRHVRMLTHEIRSTLDRHTILKTTLVELGRTLALEECALWMPTRTGLELQLSYTLRHQHPVEYTVPIQLPVINQVFGTSRAVKISPNSPVARLRPVSGKYMLGEVVAVRVPLLHLSNFQINDWPELSTKRYALMVLMLPSDSARQWHVHELELVEVVADQVAVALSHAAILEESMRARDLLMEQNVALDLARREAETAIRARNDFLAVMNHEMRTPMHAIIALSSLLQETELTPEQRLMVETILKSSNLLATLMNDVLDLSRLEDGSLQLELGTFNLHTLFREVLNLIKPIAVVKKLPITLNLAPDLPEFVVGDEKRLMQIILNIVGNAVKFSKQGSISVTALVTKSDTRAADFFVVPTGSHFYLRVKVKDSGAGINPQDIPKIFTKFAQTQSLATRSSGGSGLGLAISKRFVNLMEGNIWIESDGLGKGCTAIFDVKLGISERSNESKQSGIPKVPAIPRHSNFTGLKVLVMDENGVSRMVTKGLLVHLGCEVTTVSSNEECLRVVSHEHKVVFMDVCMPGVENYQIALRIHEKFTKQRHQRPLLVALSGNTDKSTKEKCMSFGLDGVLLKPVSLDNIRDVLSDLLEPRVLYEGM

How the values were obtained:
[1] = Copper binding assay: purified ETR1 transmembrane domain titrated to BCA2-Cu(I) complex, absorbance at 562 nm; conditions: ETR1-TMD expressed and purified from E. coli; Cu(I) stabilized by BCA
Source text: Cu(I) was stabilized by the copper chelator BCA, and then titrated with increasing ETR1 protein concentration.
Titration curves were corrected for nonspecific binding observed with chemically and thermally denatured receptor to maximize signal to background levels.

[2] = Saturable [14C]ethylene binding to yeast transgenically expressing ETR1; parameters: species or system Saccharomyces cerevisiae; conditions: for saturable [14C]ethylene binding: 0.21 μL L^−1 [14C]ethylene, with or without excess [12C]ethylene
Source text: Saturable ethylene binding of the ETR1 Asp25 mutants was examined by heterologous expression in yeast, with binding to [^14C]ethylene determined in the presence or absence of excess [^12C]ethylene (FIG. 2C). […] This included the ETR1^D25A mutant, consistent with previous observations, as well as for the ETR1^D25N and ETR1^D25Q mutants (FIG. 2C). Results from the ethylene binding assay are therefore consistent with the negative charge at D25 playing a significant role in mediating high-affinity ethylene binding.
[^14C]ethylene (specific activity=116 mCi/mmol) was obtained from ViTrax Radiochemicals (Placentia, CA) and trapped as the mercuric perchlorate complex as described. For ethylene binding assays in yeast, ETR1 was expressed in the yeast Saccharomyces cerevisiae (strain FY834) using the vector pYcDE-2 and a constitutive ADC1 promoter. The yeast growth media was supplemented with 40 μg L^−1 copper sulfate. Saturable ethylene binding to yeast was determined by analyzing binding of 0.3 g yeast per sample to 0.21 μL L^−1 [^14C]ethylene, in the presence or absence of excess [^12C]ethylene.

[3] = system: Arabidopsis seedlings, etr1 etr2 ein4 background; assay: Triple-response hypocotyl growth assay of dark-grown seedlings expressing ETR1 transgenes; format: in vivo; conditions: for rescue of growth of etr1 etr2 ein4 triple mutant in air: absence of ethylene, hypocotyl and adult shoot growth
Description: Functionality of the ETR1 Asp25 mutants was tested by transgenic expression in the etr1 etr2 ein4 Arabidopsis background.
Applicant can thus exploit the triple mutant to assess the ability of the ETR1 transgenes to rescue growth in the absence of ethylene as well as their ability to mediate a response to ethylene. Such an analysis indicates whether the encoded receptors are able to assume the ‘on’ conformation that represses the ethylene response in air, as well as the ‘off’ conformation that occurs in response to ethylene binding.
(§1) All Arabidopsis lines were of the Columbia (Col-0) accession. The etr1-1 and etr1-6 etr2-3 ein4-4 mutant lines have been described. Analysis of the triple response of dark-grown Arabidopsis seedlings to ethylene was performed as described previously. Briefly, seedlings were grown at 22° C. on vertically oriented plates on half-strength Murashige and Skoog basal medium with Gamborg's vitamins (pH 5.75; Sigma), 0.8% (w/v) agar, and 5 μM aminoethoxyvinylglycine (AVG) to inhibit ethylene biosynthesis. The stratified seed was exposed to light for 8 hr and then moved to the dark in the presence or absence of ethylene, with analysis of the seedling growth being performed following 4 days total growth. For short-term kinetic analysis of dark-grown seedlings, time-lapse imaging and growth rate analysis of hypocotyls were carried out as described previously.

[4] = system: Arabidopsis seedlings, etr1 etr2 ein4 background; assay: Short-term kinetic analysis of hypocotyl growth response to ethylene; format: in vivo; conditions: for short-term hypocotyl growth response to ethylene: 10 μL/L ethylene for 2 hr; for growth recovery upon ethylene removal: after 2 hr of 10 μL/L ethylene, 5-hr recovery in air
Description: Based on the differences Applicant uncovered for the long-term ethylene growth responses for the Asp25 mutants, Applicant also analyzed their short-term hypocotyl growth and molecular responses to ethylene. To this end, Applicant performed a short-term kinetic analysis, analyzing the initial hypocotyl growth inhibition in response to 10 μL/L ethylene and the growth recovery following the removal of ethylene after two hours of treatment (FIG. 6A).
as §1

[5] = system: OSR1, ERF1, EXP5 and EXPb1 expression; assay: Ethylene-dependent gene expression by RT-qPCR; format: in vivo, Arabidopsis; conditions: 0 or 1 μL L^−1 ethylene for 2 hr
Description: To examine the short-term molecular response, Applicant characterized ethylene-dependent gene expression for the ETR1 Asp25 mutants (FIG. 6B). Expression of OSR1 and ERF1 is induced, whereas the expression of EXP5 and EXPb1 is repressed, in response to ethylene.
RNA isolation and RT-qPCR was performed with three biological replicates and two technical replicates of each.

[6] = Saturable [14C]ethylene binding of Arabidopsis seedlings (in planta); conditions: two-week-old green seedlings, 0.31 μL L^−1 [14C]ethylene, 5 μM AVG
Description: [^14C]ethylene binding was examined in two-week-old green seedlings grown on media containing 5 μM aminoethoxyvinylglycine (AVG) to inhibit ethylene biosynthesis.
For ethylene binding assays with Arabidopsis seedlings, two-week-old green seedlings were used that had been grown on media containing 5 μl M AVG to inhibit ethylene biosynthesis, with ˜1 g seedlings per sample. The fresh weight of seedlings was determined, and each sample packaged into bags formed from a layer of cheese cloth and stapled at the top. Humidity was maintained in the ethylene binding chambers by use of moistened paper towels. Saturable ethylene binding was determined by analyzing binding to 0.31 μL L^−1 [^14C]ethylene, in the presence or absence of excess [^12C]ethylene.

[7] = system: dark-grown Arabidopsis seedlings; assay: Silver sensitivity assay: effect of silver on ethylene response of dark-grown seedlings; format: in vivo; conditions: transgene in etr1 etr2 ein4 background, 10 μL/L ethylene
Source text: As an initial test for the feasibility of the first hypothesis, Applicant asked if ETR1^D25N could still bind a metal cofactor, and therefore potentially ethylene, in planta. For this purpose, Applicant examined the effects of silver (Ag) on ethylene sensitivity. Silver is thought to substitute for the copper cofactor and, although receptors containing silver can still bind ethylene, they no longer transmit the signal, resulting in ethylene insensitivity.

[8] = system: Arabidopsis seedlings, etr1 etr2 ein4 ers1 ers2 background; assay: Ethylene and 1-MCP response of ETR1^D25N lines lacking all five native ethylene receptors; format: in vivo; conditions: 1 μM ethylene

Molecule	copper binding [1]	saturable [14C]ethylene binding [2]	rescue of growth of etr1 etr2 ein4 triple mutant in air [3]	short-term hypocotyl growth response to ethylene [4]	growth recovery upon ethylene removal [4]	molecular response to ethylene (ethylene-dependent gene expression) [5]	ethylene binding in planta versus etr1 etr2 ein4 basal level [6]	ability of silver to block the ethylene response in transgene lines [7]	effect of 1-MCP on ethylene response ([8]; ETR1^D25N (etr1 etr2 ein4 ers1 ers2) lines, 1 μM 1-MCP)	koff increase ([2]; relative to ETR1^wt, suggested by inability to detect [14C]ethylene binding)	hypocotyl growth response to ethylene ([3]; dark-grown seedlings, 0 or 1 μL L^−1 ethylene)	response to ethylene without other native receptors ([8]; etr1 etr2 ein4 ers1 ers2 lines #11 and #15)
ETR1^wt: wild-type ethylene receptor ETR1 of Arabidopsis	copper binding	Saturable binding	rescued growth	rapid growth response to ethylene	growth recovery intermediate between that exhibited by the wild-type and the etr1 etr2 ein4 seedlings	consistent with what is observed in the wild-type control	significant increase in ethylene binding	restores the ability of silver to block the ethylene response	–	–	–	–
CC1=CC1 [1-methylcyclopropene, reference compound]	–	–	–	–	–	–	–	–	blocked	–	–	–
B1	minimal residual binding	No saturable [^14C]ethylene binding was detected	rescued growth	rapid growth response to ethylene	growth recovery intermediate between that exhibited by the wild-type and the etr1 etr2 ein4 seedlings	consistent with what is observed in the wild-type control	no increase in ethylene binding	restores the ability of silver to block the ethylene response	–	at least 100 fold	rescued the hypocotyl growth response to ethylene to the same degree as ETR1^wt	still responded to ethylene
